The data set addresses venus-labeled Gβγ dimers (venus155–239-Gβ1 with venus1–155-Gγ2) (human, UniProt P62873 1-340; P59768 1-71). Put plainly: FRET or BRET. In general terms: BRET reads energy transfer from a luciferase to a nearby fluorophore.

B1: masGRK3ct-Rluc8 (domain or fragment)
chain: MGSSKSKTSNSGIKLLDCDQELYKNFPLVISERWQQEVAETVYEAVNADTDKIEARKRAKNKQLGHEEDYALGRDCIVHGYMLKLGNPFLTQWQRRYFYLFPNRLEWRGEGESRQSLLTMEQIVSVEETQIKDKKCILLRIKGGKQFVLQCESDPEFVQWKKELTETFMEAQRLLRRAPKFLNKSRSAVVELSKPPLCHRNSNGL
modifications: myristoylation directed by the N-terminal mas peptide
With B1, the “adenosine-induced BRET increase (highest relative expression of C-TM-Gα i1)” value came out at 0.025 ± 0.003 and the “adenosine-induced BRET increase (lowest relative expression of C-TM-Gα i1)” value amounted to 0.05 ± 0.007.

The values are drawn from publication PMC2668204 (Cellular signalling, 2009).
